The results in this text go back to PMC7472703, “DNA methylation suppresses chitin degradation and promotes the wing development by inhibiting Bmara-mediated chitinase expression in the silkworm, Bombyx mori”.

The series has as its target T1, Bmara (homeobox protein araucan) (Bombyx mori, UniProt A0A8R1WJM2 5-477).
T1 sequence: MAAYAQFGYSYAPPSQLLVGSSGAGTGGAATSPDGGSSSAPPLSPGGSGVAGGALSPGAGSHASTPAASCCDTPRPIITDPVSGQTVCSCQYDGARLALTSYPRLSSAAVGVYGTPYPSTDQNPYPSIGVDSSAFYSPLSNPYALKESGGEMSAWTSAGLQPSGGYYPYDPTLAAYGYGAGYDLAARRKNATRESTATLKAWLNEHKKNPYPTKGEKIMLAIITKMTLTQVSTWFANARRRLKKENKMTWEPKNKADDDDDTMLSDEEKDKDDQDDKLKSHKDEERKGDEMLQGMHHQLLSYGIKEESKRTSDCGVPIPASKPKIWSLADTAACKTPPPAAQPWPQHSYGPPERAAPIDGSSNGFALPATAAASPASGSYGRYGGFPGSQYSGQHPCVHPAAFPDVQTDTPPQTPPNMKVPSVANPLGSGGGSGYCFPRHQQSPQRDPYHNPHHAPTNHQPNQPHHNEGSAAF
Description: EMSA; 5 mM MgCl2, 4 mM EDTA; EMSA: 50 mM KCl, 5 mM MgCl2, 4 mM EDTA, 2.5% glycerol, 0.05% NP-40, 50 ng poly(dI-dC), 20 fmol probe, 20 uL, 20 min RT. Pull-down: 10 mM HEPES pH 7.6, 100 mM K. Conditions: protein: recombinant; tags: 6xHis (pET-28a/32a); label: 5' biotin; blunt. For orientation: A gel shift assay detects complexes by their altered migration in electrophoresis.

B1: Mut-CRE probe (dsDNA)
DNA 1: TTCAGTCCACGGCGTGACTTTCGACCGGA
DNA 2: TCCGGTCGAAAGTCACGCCGTGGACTGAA
On to B1, for which the binding result is on record as “no binding”.

B2: Wt CRE probe (BmCHT10 promoter -250 to -225; legend -250 to -221) (dsDNA)
DNA 1: TTCAGTCCACGGCTGTCTTTCAACACGGA
DNA 2: TCCGTGTTGAAAGACAGCCGTGGACTGAA
Turning to B2, the binding result is given as “binds”.
